What was measured:
[1] = system: Type I-F Cascade (Cas8f, Cas5f, His-Cas7f, Cas6f, crRNA) (Shewanella baltica OS195); experiment: BLI
[2] = system: Type I-Fv Cascade (Cas5fv, His-Cas7fv, Cas6f, crRNA spacer4) (Shewanella putrefaciens CN-32); experiment: BLI; settings: BLI buffer: SEC buffer (composition in Supplementary Table II, not in material) + 0.1 uM BSA + 0.01% Triton X-100, 100 nM biotinylated oligonucleotide loaded …

**Q.** Which Kd ([1]; BLI buffer: SEC buffer (composition in Supplementary Table II, not in material) + 0.1 uM BSA + 0.01% Triton X-100, 100 nM biotinylated oligonucleotide loaded …) does the source give for “CGCCGGTTATAGGTTTGCGCGTCTTGCTGGGCGATAGGACGTGGGATATCTTTTTGATATCCCACGTCCTATCGCCCAGCAAGACGCGCAAACCTATAACCGGCG (double strand) [Complementary (GG PAM)]” here?
**A.** Its Kd is 99.6 nM.

**Q.** What about the binding signal ([1]; BLI buffer: SEC buffer (composition in Supplementary Table II, not in material) + 0.1 uM BSA + 0.01% Triton X-100, 100 nM biotinylated oligonucleotide loaded …, scale: fold reduction of equilibrium binding level) of the same sequence?
**A.** The binding signal was 5.

**Q.** And the Kd [2]?
**A.** Its Kd is 46.5 nM.

From paper PMC7266957
